B1: mouse Toll-like receptor 3 (TLR3) extracellular domain (ECD), wild type [mouse] / itself (parent)
chain: TNQCTVRYNVADCSHLKLTHIPDDLPSNITVLNLTHNQLRRLPPTNFTRYSQLAILDAGFNSISKLEPELCQILPLLKVLNLQHNELSQISDQTFVFCTNLTELDLMSNSIHKIKSNPFKNQKNLIKLDLSHNGLSSTKLGTGVQLENLQELLLAKNKILALRSEELEFLGNSSLRKLDLSSNPLKEFSPGCFQTIGKLFALLLNNAQLNPHLTEKLCWELSNTSIQNLSLANNQLLATSESTFSGLKWTNLTQLDLSYNNLHDVGNGSFSYLPSLRYLSLEYNNIQRLSPRSFYGLSNLRYLSLKRAFTKQSVSLASHPNIDDFSFQWLKYLEYLNMDDNNIPSTKSNTFTGLVSLKYLSLSKTFTSLQTLTNETFVSLAHSPLLTLNLTKNHISKIANGTFSWLGQLRILDLGLNEIEQKLSGQEWRGLRNIFEIYLSYNKYLQLSTSSFALVPSLQRLMLRRVALKNVDISPSPFRPLRNLTILDLSNNNIANINEDLLEGLENLEILDFQHNNLARLWKRANPGGPVNFLKGLSHLHILNLESNGLDEIPVGVFKNLFELKSINLGLNNLNKLEPFIFDDQTSLRSLNLQKNLITSVEKDVFGPPFQNLNSLDMRFNPFDCTCESISWFVNWINQTHTNISELSTHYLCNTPHHYYGFPLKLFDTSSCKDSAPFEL

Variants of: B1
Experiment: cryo-EM 2D classification (fraction of tetrameric TLR3 particles on 90 bp dsRNA)
Conditions: with itself; TLR3 0.2 mg/mL (~2.4 µM) with 3.6 molar amount of 90 bp dsRNA (0.5 mg/mL, ~8.6 µM); 25 mM MES-NaOH pH 5.3 and 0.2 M NaCl; on ice for 2–3 h; parent: 11; read off a plot

| Variant | screen value |
| --- | --- |
| chain 1 Q93E V96E K113E K115E N117E K120E N121E | 1.6% |
| chain 1 E499K D500K | 3.6% |
| chain 1 S91E Q93E K113E K115E N117E K120E N121E | 0.75% |

Other lines, results leading:

| screen value | Variant |
| --- | --- |
| 2.7% | chain 1 E499K D500K E503K |
| 12% | chain 1 N498K E499K E503K |

From PMC9834221, “TLR3 forms a laterally aligned multimeric complex along double-stranded RNA for efficient signal transduction”
